Data from publication PMC2195916.

Key:
[1] = molecular target: Por1B of N. gonorrhoeae strain MS11 (Neisseria gonorrhoeae strain MS11); assay: flow cytometry on cells
[2] = molecular target: C4b-binding protein (C4bp) (human) (UniProt P04003); assay: flow cytometry on cells

percent decrease of C4bp binding to MS11 (C4b in 60-fold molar excess) [2]	Substance	percent decrease of binding in 575 mM NaCl [1]	percent decrease of binding with 125 units of heparin [1]
–	C4b-binding protein (C4bp) (from UniProt P04003 49-597; P20851 18-252) (complex)	85%	> 90%
50%	C4b (natural protein)	–	–
